The source of these data is patent publication US20030203869A1.

The target of assay [1] is purified HLA-A11 molecules (human). In words: inhibition of binding of a labeled reference peptide to purified HLA-A11.
Assay [2] deals with purified HLA-A2.1 molecules (human). Put plainly: inhibition of binding of a labeled reference peptide to purified HLA-A2.1. The following applies: remark: other sources report otherwise.

For the molecule TVYYGVPVWK (modifications not checked) [HIV Env 49 (HIV env 49-58) CTL epitope peptide …], in assay [1], the IC50 (as a rule, the concentration that gives 50% inhibition) is 4 nM.
In assay [2], WLSLLVPFV (modifications not checked) [HBV Env 335 (HBV env 335-343) CTL epitope peptide …] showed an IC50 of 5 nM.
